# From paper PMC7975240
# Target: SARS-CoV-2 spike trimer (1–1208 aa) (SARS-CoV-2) (UniProt P0DTC2)
# Assay: SPR
substance,measurement,value
Toll-like receptor 4 (TLR4) (from UniProt O00206 24-839),Kd,0.3 µM
